19 substances from patent US8299213B2, “Synthetic or natural peptides binding protein phosphatase 2A, identification method and uses” (Universite Pierre et Marie Curie (Paris 6), priority 2001, dated 2012) can be followed below.

“Also recorded” adds a separate entry of the source.

Assay [1] has as its system Hela cells. Kind of assay: Cell viability test (MTT). It counts as cell-based, human. Conditions: 72 h, increasing peptide concentrations (FIG. 4). As to the method: Hela cells (10^4 for 100 μl) were seeded into 96-well plates (flat bases) with complete DMEM medium containing 2.5% penicillin/ampicillin and 10% foetal calf serum. After incubating overnight at 37° C. in a CO2 oven (5%), the cells were cultivated in the presence of different peptide concentrations. After incubating for 72 h, the medium containing the peptides was aspirated and the MTT at 0.5 mg/ml (diluted in DMEM alone) was added in an amount of 100 μl per well. Incubation was carried out in the dark at 37° C. for 30 minutes then the MTT was aspirated off and 50 μl of DMSO was added to all wells. It was necessary to wait ten minutes for complete lysis of the cells and to agitate the lysate well to homogenize dissolution of the reaction product in the wells. The plates were then read at 570 nm with a 690 nm reference filter.

Assay [2] deals with Hela cells. Kind of assay: Cell penetration test (biotinylated peptide-avidine peroxidase complexes). It counts as cell-based, human. Conditions: biotinylated peptides, 4 hours incubation (FIG. 3). On the procedure: We analyzed the Hela line, which is derived from a human cervical carcinoma.
0.1 M Tris buffer, pH 8 containing 0.5% NP40.
25.7 ml of 0.2 M dibasic sodium phosphate+24.3 ml of 0.1 M citric acid+50 ml distilled water; adjust to pH 5.0.
4 moles of peptides were incubated with 1 mole of avidine-peroxidase. 20 minutes at ambient temperature.
Hela cells (10^4 in […]) were seeded into 96-well plates (flat bases) with complete DMEM medium in the presence of 2.5% penicillin/ampicillin and 10% foetal calf serum. After incubating overnight at 37° C. in a CO2 oven (5%), different dilutions of complexes (biotinylated-avidine peroxidase peptides) were added. After incubating for 4 hours the supernatant was aspirated and the cells were washed 3 times with PBS, trypsinated and taken up for counting in PBS. After counting, the cells were taken up in 300 μl of lysis buffer.
50 μl of OPD buffer was incubated in a 96 well ELISA plate with 50 μl of lysis buffer or 50 μl of cell lysate (in general, different successive dilutions were carried out (to ½)). In order to reveal, 50 μl of OPD solution was added (in the dark). The reaction (about 10 min) was stopped with 100 μl of 1N HCl.
The peroxidase activity was determined by reading at 490 nm in the ELISA reader (reference filter at 620 nm) and the quantity of peroxidase in the lysates was calculated from the calibration curve then extrapolated to the same number of cells (10^3 or 10^4): Peptide molecules=(6*10^23/MW of peptide)*ng of PO*10^−9. A.4. Cell Viability Test

The target of another assay is T1, subunit A of PP2A (Homo sapiens, UniProt P30153).
T1 construct: made in house; host or cells: E. coli
T1 sequence (P30153 whole entry): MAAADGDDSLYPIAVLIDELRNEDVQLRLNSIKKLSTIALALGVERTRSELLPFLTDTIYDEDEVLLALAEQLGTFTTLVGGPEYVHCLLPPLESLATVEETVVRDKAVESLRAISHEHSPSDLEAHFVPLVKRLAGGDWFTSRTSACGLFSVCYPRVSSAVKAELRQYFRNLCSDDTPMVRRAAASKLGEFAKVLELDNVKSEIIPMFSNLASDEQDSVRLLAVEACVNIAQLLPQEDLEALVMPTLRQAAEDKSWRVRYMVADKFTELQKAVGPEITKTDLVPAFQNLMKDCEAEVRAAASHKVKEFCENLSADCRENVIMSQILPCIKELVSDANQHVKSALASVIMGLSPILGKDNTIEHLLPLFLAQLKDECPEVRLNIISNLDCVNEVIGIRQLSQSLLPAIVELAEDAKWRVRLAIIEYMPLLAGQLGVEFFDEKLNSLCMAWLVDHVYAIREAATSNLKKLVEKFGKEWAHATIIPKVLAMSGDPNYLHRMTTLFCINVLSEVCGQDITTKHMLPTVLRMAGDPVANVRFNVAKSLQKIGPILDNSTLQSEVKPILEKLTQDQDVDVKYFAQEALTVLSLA
Kind of assay: SPOT peptide membrane screened with structural subunit A of PP2A. It counts as binding. Conditions: peptides on cellulose membrane, 4 μg/ml purified protein, antibody against protein A (FIGS. 1A, 2A). From the text: A recombinant structural subunit of PP2A was expressed in E. coli and purified using the protocol described by Cohen et al (Cohen P, Alemany S, Hemmings B A, Resink T J, Stralfors P, Tung H Y. Protein phosphatase-1 and protein phosphatase 2A from rabbit skeletal muscle. Methods Enzymol 1988 159, 390-408), or that described by Bosch et al (Bosch M, Cayla X, Van Hoof C, Hemmings B A, Ozon R, Merlevede W, Goris J. the PR55 and PR65 subunits of protein phosphatase 2A from Xenopus laevis. Molecular cloning and developmental regulation of expression. Eur J Biochem 1995, 230, 1037-45).
(§1) Binding peptides derived from CK2α proteins (encoded by T parva protozoa) or Vpr protein (encoded by the HIV-1 virus) with PP2A were identified using the “spot peptides” technique described above (Frank and Overwing, 1996, Meth Mol Biol 66, 149-169).
(§2) The method consisted of synthesizing dodecapeptides, in situ on a cellulose membrane, at defined positions wherein the series of the sequence covered the whole sequence of the protein of interest (Vpr or CK2α). The peptides of two consecutive spots on the membrane overlap with an overlapped by two amino acids.
(§3) Sixty-eight (68) dodecapeptides covering the whole sequence of the Vpr protein of HIV-1 and two hundred and five (205) dodecapeptides covering the sequence for the CK2α protein of Theileria were synthesized and covalently bound to cellulose membranes.
(§4) Each prepared membrane was first saturated for 1 hour at ambient temperature with TBS containing 5% skimmed Régilait (milk) and 3% BSA then incubated overnight in the same buffer in the presence of 4 μg/ml of purified protein (subunit A of PP2A or holoenzyme PP2A1).
(§5) The membranes were washed 5 times for 15 minutes with a conventional TBST buffer (TBS+TWEEN) used for incubation then incubated a further 1 hour at ambient temperature with a second antibody (coupled with peroxidase).

Another assay has as its target T2, holoenzyme PP2A1 (Sus scrofa, UniProt P54612).
T2 construct: Trimeric PP2A1 protein was purified to homogeneity from pig brain; from tissue; host or cells: pig brain
Kind of assay: SPOT peptide membrane screened with holoenzyme PP2A1. Type of assay: binding, pig. Particulars: for binding to the trimeric holoenzyme PP2A1: peptides on cellulose membrane, 4 μg/ml purified protein, antibodies against proteins A, B and C (FIGS. 1B, 2B).
Text: Trimeric PP2A1 protein was purified to homogeneity from pig brain.
as §1, §2, §3, §4, §5

T2 sequence (P54612 whole entry): as the sequence (P30153 whole entry) above, with S324T counted along it
T2 sequence (P67776 whole entry partner): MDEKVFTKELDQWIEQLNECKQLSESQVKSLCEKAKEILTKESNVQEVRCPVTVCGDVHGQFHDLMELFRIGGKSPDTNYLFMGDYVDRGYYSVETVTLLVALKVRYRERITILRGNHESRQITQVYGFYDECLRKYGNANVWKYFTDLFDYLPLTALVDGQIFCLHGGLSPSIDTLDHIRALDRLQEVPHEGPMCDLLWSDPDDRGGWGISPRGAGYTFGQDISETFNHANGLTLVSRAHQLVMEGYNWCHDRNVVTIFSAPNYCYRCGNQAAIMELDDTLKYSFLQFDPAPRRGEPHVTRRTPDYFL

Turning to “(AHSRIG)3 (AHSRIGAHSRIGAHSRIG; listed as Theileria parva) [FD12]”, the “effect on viability of Hela cells” value with Hela cells [1] was “affects the viability of the Hela cell”.
“(RHSRIG)3 (RHSRIGRHSRIGRHSRIG; listed as Theileria parva) [FD11]”: the “intracellular penetration into Hela cells” value in the assay on Hela cells [2] is “possibility of penetrating into the Hela cell”.
As to “(RQKRLI)3 (RQKRLIRQKRLIRQKRLI; listed as Theileria parva) [FD7]”, the “intracellular penetration into Hela cells” value in the assay with Hela cells [2] is listed as “possibility of penetrating into the Hela cell”.
Turning to “ALIRILQQLLFI (Human immunodeficiency virus) [SEQ ID No: 7]”, the “binding to the structural subunit A of PP2A” value (from here on “binding … of PP2A”) with subunit A of PP2A is recorded as “binding the subunit A of PP2A”.
With “IGIIQQRRTRNG (Human immunodeficiency virus) [SEQ ID No: 12]”, the “binding … of PP2A” value with subunit A of PP2A was “binding the subunit A of PP2A”.
With “ILQQLLFIHFRI (Human immunodeficiency virus) [SEQ ID No: 9]”, the “binding … of PP2A” value with subunit A of PP2A is given as “binding the subunit A of PP2A”.
With “IRILQQLLFIHF (Human immunodeficiency virus) [SEQ ID No: 8]”, in the assay with subunit A of PP2A, the “binding … of PP2A” value is reported as “binding the subunit A of PP2A”.
For “KILRLIDWGLAEFYHP (listed as Theileria parva) [T parva CK2α site 3]”, in the assay with subunit A of PP2A, the “binding … of PP2A” value is “containing a binding site”. The “binding to the trimeric holoenzyme PP2A1” value with holoenzyme PP2A1 was “containing a binding site”.
On to “LIDWGLAEFYHP (listed as Theileria parva) [peptide 131]”, for which the “binding PP2A” value with holoenzyme PP2A1 (FIG. 2, subunit A or holoenzyme not given) is recorded as “capable of binding PP2A”.
Turning to “RHSRIGIIQQRR (Human immunodeficiency virus) [SEQ ID No: 10]”, in the assay with subunit A of PP2A, the “binding … of PP2A” value is “binding the subunit A of PP2A”.
Consider RHSRIGIIQQRRTRNG [FD14], for which the “effect on viability of Hela cells” value in the assay on Hela cells [1] is “clearly affects the viability of Hela cells”. Further, the “binding … of PP2A” value with subunit A of PP2A is “containing a binding site”. The “binding to the trimeric holoenzyme PP2A1” value in the assay with holoenzyme PP2A1 is on record as “containing a binding site”. The “intracellular penetration into Hela cells” value in the assay on Hela cells [2] is recorded as “possibility of penetrating into the Hela cell; also recorded: penetrating peptides”.
Regarding RHSRIGVTRQRRARNG [FD13], the “effect on viability of Hela cells” value in the assay with Hela cells [1] is listed as “absence of the biological effect”. In the assay on Hela cells [2], the “intracellular penetration into Hela cells” value is reported as “possibility of penetrating into the Hela cell”.
For the substance “RKIGRGKFSEVFEG (listed as Theileria parva) [T parva CK2α site 1]”, in the assay with subunit A of PP2A, the “binding … of PP2A” value is “containing a binding site”.
Turning to “RRRRRRRSRGRRRRTY (listed as Theileria parva) [FD8, peptide derived from protamine]”, the “effect on viability of Hela cells” value with Hela cells [1] is recorded as “affects the viability of Hela cells”. Moreover, the “intracellular penetration into Hela cells” value with Hela cells [2] was “possibility of penetrating into the Hela cell; also recorded: penetrating peptides”.
Take “SRIGIIQQRRTR (Human immunodeficiency virus) [SEQ ID No: 11]”: in the assay with subunit A of PP2A, the “binding … of PP2A” value was “binding the subunit A of PP2A”.
In the case of “TVTKDKCVIKILKPVKKKKIKREIKILQNL (listed as Theileria parva) [T parva CK2α site 2]”, the “binding … of PP2A” value with subunit A of PP2A is “containing a binding site”.
The same measure, in the same setting: for VEALIRILQQLL [SEQ ID No: 6] the value was “binding the subunit A of PP2A”; for VEALIRILQQLLFIHFRI [HIV-1 Vpr site 2], “containing a binding site”.
Turning to “VKKKKIKREIKI (listed as Theileria parva) [FD6]”, in the assay on Hela cells [1], the “effect on viability of Hela cells” value is recorded as “does not affect the viability”. The “intracellular penetration into Hela cells” value with Hela cells [2] was “possibility of penetrating into the Hela cell”.
